Experimental findings from patent US20230058489A1, “COMBINATION COMPRISING A TIM-3 INHIBITOR AND A HYPOMETHYLATING AGENT FOR USE IN TREATING MYELODYSPLASTIC SYNDROME OR CHRONIC MYELOMONOCYTIC LEUKEMIA” (Novartis AG, priority 2020, published 2023) are described below.

The test has as its target T1, interaction between TIM-3 and Galectin-9 (Homo sapiens, UniProt Q8TDQ0).
T1 construct: purchased R&D Systems
As to the kind of experiment: MesoScale competition assay, Gal9-SULFOTag binding to coated TIM-3 fusion protein. The settings on record: serial dilutions, Galectin-9 SULFOTag 100 nM, FIG. 1. As for the experimental part: TIM-3 fusion protein (R&D Systems) was coated on a standard MesoScale 96 well plate (Meso Scale Discovery) at 2 μg/ml in PBS (Phosphate Buffered Saline) and incubated for six hours at room temperature. The plate was washed three times with PBST (PBS buffer containing 0.05% Tween-20) and blocked with PBS containing 5% Probumin (Millipore) overnight at 4° C. […] The plate was then washed three times with PBST, and Galectin-9 labeled with MSD SULFOTag (Meso Scale Discovery) as per manufacturer's instructions, diluted in Assay Diluent to 100 nM, was added to the plate for one hour at room temperature on an orbital shaker. The plate was again washed three times with PBST, and Read Buffer T (1×) was added to the plate. The plate was read on MA600 Imager, and competition was assessed as a measure of the ability of the antibody to block Gal9-SULFOTag signal to TIM-3 receptor.

B1: Galectin-9 protein: control recombinant human Galectin-9 protein, unlabeled (protein)
chain: AFSGSQAPYLSPAVPFSGTIQGGLQDGLQITVNGTVLSSSGTRFAVNFQTGFSGNDIAFHFNPRFEDGGYVVCNTRQNGSWGPEERKTHMPFQKGMPFDLCFLVQSSDFKVMVNGILFVQYFHRVPFHRVDTISVNGSVQLSYISFQPPGVWPANPAPITQTVIHTVQSAPGQMFSTPAIPPMMYPHPAYPMPFITTILGGLYPSKSILLSGTVLPSAQRFHINLCSGNHIAFHLNPRFDENAVVRNTQIDNSWGSEERSLPRKMPFVRGQSFSVWILCEAHCLKVAVDGQHLFEYYHRLRNLPTINRLEVGGDIQLTHVQT
Turning to B1, the “ability to block Gal9-SULFOTag signal to TIM-3 receptor (competition)” value was “did not”.
